{"source": "patent US20260250397A1", "about": "“TREATMENT OF GASTRIC CANCER” (AMGEN INC., priority 2022, published 2026)", "key": {"[1]": {"conditions": "cited from earlier work"}, "[2]": {"tested_on": "FGFR2b overexpressing gastric and breast cancer cell lines", "assay": "Cell proliferation in cell culture", "assay_type": "cell-based", "conditions": "FGF ligand-stimulated"}, "[3]": {"molecular_target": "FcγRIIIa (Homo sapiens, UniProt P08637)", "sequence (P08637 17-254)": "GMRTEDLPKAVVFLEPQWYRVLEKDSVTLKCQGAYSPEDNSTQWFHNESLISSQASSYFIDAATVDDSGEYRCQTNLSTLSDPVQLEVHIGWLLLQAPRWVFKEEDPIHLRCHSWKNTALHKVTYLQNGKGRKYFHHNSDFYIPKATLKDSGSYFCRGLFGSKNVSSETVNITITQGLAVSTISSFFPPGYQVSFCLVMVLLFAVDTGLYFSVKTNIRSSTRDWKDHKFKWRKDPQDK", "assay": "Affinity for Fc receptor", "assay_type": "binding", "conditions": "compared to the fucosylated molecule", "from_the_text": "In the method of some embodiments, the anti-FGFR2 antibody comprises the heavy chain of SEQ ID NO: 2 and the light chain of SEQ ID NO: 3, and is afucosylated."}, "[4]": {"assay": "Embryo-fetal development with prenatal and postnatal development study", "assay_type": "in vivo", "conditions": "all dose levels (5 to 100 mg/kg/doses)", "method": "(§1) The half-life was dose-dependent, ranging from 0.8 days at the lowest doses (1 to 1.5 mg/kg) to at least 8 days at the highest doses (100 to 150 mg/kg) tested in cynomolgus monkeys. […] Target-mediated clearance was saturable, marked by dose-proportional increases in exposure at doses exceeding this level when dosed at weekly intervals. […] As such, it is contemplated that in some embodiments, subjects treated with bemarituzumab are not pregnant."}, "[5]": {"molecular_target": "T1, FGFR2b (Homo sapiens, UniProt P21802)", "T1 construct": "in cell culture in FGFR2b overexpressing gastric and breast cancer cell lines; endogenous in cells", "T1 sequence (P21802 22-822 isoform P21802-3 limits assumed)": "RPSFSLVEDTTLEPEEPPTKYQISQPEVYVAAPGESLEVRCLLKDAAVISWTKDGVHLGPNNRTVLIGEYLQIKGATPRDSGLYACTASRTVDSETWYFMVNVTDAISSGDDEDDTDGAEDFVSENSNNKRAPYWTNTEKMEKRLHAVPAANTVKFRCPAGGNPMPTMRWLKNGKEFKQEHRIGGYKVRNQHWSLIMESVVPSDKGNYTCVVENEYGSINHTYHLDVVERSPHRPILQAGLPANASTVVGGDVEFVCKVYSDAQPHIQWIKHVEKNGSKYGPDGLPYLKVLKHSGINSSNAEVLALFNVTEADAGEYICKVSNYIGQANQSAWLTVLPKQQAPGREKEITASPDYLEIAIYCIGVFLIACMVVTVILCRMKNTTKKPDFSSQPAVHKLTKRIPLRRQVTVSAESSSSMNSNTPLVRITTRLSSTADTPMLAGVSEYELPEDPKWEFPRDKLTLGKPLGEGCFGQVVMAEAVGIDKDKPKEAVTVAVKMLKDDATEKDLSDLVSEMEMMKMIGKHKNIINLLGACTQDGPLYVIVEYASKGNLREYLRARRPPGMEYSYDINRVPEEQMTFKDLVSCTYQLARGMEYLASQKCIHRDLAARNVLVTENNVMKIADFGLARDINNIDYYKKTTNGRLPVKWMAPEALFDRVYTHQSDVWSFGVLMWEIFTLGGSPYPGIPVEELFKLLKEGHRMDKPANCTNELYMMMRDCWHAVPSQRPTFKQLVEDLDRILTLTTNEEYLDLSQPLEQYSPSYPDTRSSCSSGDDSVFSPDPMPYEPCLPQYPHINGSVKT", "assay": "FGF ligand-stimulated FGFR2b phosphorylation and receptor level in cell culture", "assay_type": "cell-based"}, "[6]": {"assay": "Clinical safety of bemarituzumab (earlier studies, with mFOLFOX6)", "assay_type": "in vivo, human", "from_the_text": "Corneal events are very common with bemarituzumab with the most common adverse event being dry eye. Although nearly all of the events have been non-serious, grade 3 events such ulcerative keratitis and punctate keratitis which can lead to decreases in visual acuity have been observed. The majority of the corneal events typically resolve with treatment interruption or discontinuation and standard of care interventions for the corneal events. As such, it is contemplated that in some embodiments, subjects treated with bemarituzumab are further treated with ocular lubricants. The ocular lubricants may be administered prophylactically to reduce the risk of corneal events."}, "[7]": {"assay": "Phase 1b study (Example 10): safety of bemarituzumab with CAPOX with or without nivolumab", "assay_type": "in vivo, human", "conditions": "cohort A (DL1 & DL2) and cohort C; based on the known bemarituzumab safety profile"}, "[8]": {"conditions": "treatment with bemarituzumab, versus FGFR TKIs; cited from earlier work"}, "[9]": {"tested_on": "FGFR substrate-2 (FRS2)", "assay": "Downstream signaling: phosphorylation of FGFR substrate-2 (FRS2)", "assay_type": "cell-based", "method": "The effect on downstream signaling was measured by examining phosphorylation of a protein that is directly phosphorylated by the FGFR2 protein, FGFR substrate-2 (FRS2)."}, "[10]": {"tested_on": "FGF23 signaling", "assay": "FGF23 signaling", "conditions": "in contrast to the FGFR tyrosine kinase inhibitors"}, "[11]": {"assay": "Pharmacokinetics after intravenous administration in cynomolgus monkeys", "assay_type": "in vivo", "method": "as §1"}, "[12]": {"tested_on": "FGFR2b overexpressing gastric and breast xenograft models", "assay": "Tumor xenograft models", "assay_type": "in vivo"}, "[13]": {"assay": "Phase 1b study (Example 10): bemarituzumab serum concentration / PK with CAPOX with or without nivolumab", "assay_type": "in vivo, human", "conditions": "for Cycle 1 Cmax (median) / Cycle 1 Ctrough (median) / Cycle 2 Cmax (median) / Cycle 2 Ctrough (median): serum, preliminary", "from_the_text": "The actual sample collection date and time (24-hour clock time) of each sample will be recorded."}, "[14]": {"conditions": "Cohort A DL1: 15 mg/kg IV Q3W + 7.5 mg/kg C1D8 + CAPOX, N=6"}, "[15]": {"conditions": "Cohort A DL2: 22 mg/kg IV Q3W + 11 mg/kg C1D8 + CAPOX, N=4"}, "[16]": {"conditions": "Cohort C: 22 mg/kg IV Q3W + 11 mg/kg C1D8 + CAPOX + Nivo, N=6"}}, "note": "“Also recorded” adds a separate entry of the source. Read-outs that look alike come from different tables or passages of the source."}
{"compound": "CCCCCOC(=O)Nc1nc(=O)n([C@@H]2O[C@H](C)[C@@H](O)[C@H]2O)cc1F", "note": "[capecitabine]", "values": [{"measurement": "most common side effects", "setting": "[1]; (30%)", "value": "diarrhea, hand-and-foot syndrome, nausea, vomiting, abdominal pain, fatigue/weakness, and hyperbilirubinemia"}]}
{"compound": "O=C1[O][Pt]2([NH][C@@H]3CCCC[C@H]3[NH]2)[O]C1=O", "note": "[oxaliplatin]", "values": [{"measurement": "most common side effects", "setting": "[1]; (40%)", "value": "peripheral sensory neuropathy, neutropenia, thrombocytopenia, anemia, nausea, increase in transaminases and alkaline phosphatase, diarrhea, emesis, fatigue, and stomatitis"}]}
{"compound": "bemarituzumab", "values": [{"measurement": "cell proliferation", "setting": "[2]", "value": "inhibits"}, {"measurement": "affinity for the Fc receptor FcγRIIIa", "setting": "[3]", "value": "higher affinity"}, {"measurement": "reproductive and developmental toxicities", "setting": "[4]", "value": "Significant reproductive and developmental toxicities were observed at all dose levels"}, {"measurement": "FGFR2b receptor level", "setting": "[5]", "value": "downregulates the receptor"}, {"measurement": "FGFR2b phosphorylation", "setting": "[5]; FGF ligand-stimulated, FGFR2b overexpressing gastric and breast cancer cell lines", "value": "inhibits; also recorded: blocks"}, {"measurement": "safety profile", "setting": "[6]; human, in vivo", "value": "acceptable safety profile"}, {"measurement": "identified risks", "setting": "[6]; in combination with mFOLFOX6", "value": "corneal toxicity, infusion related reactions, gastrointestinal toxicity (stomatitis and mucosal inflammation), nail toxicity and increase in AST and ALT"}, {"measurement": "safety findings", "setting": "[7]", "value": "no new safety findings"}, {"measurement": "hyperphosphatemia", "setting": "[8]", "value": "not associated with the hyperphosphatemia"}, {"measurement": "downstream signaling (FRS2 phosphorylation)", "setting": "[9]", "value": "inhibits downstream signaling"}, {"measurement": "FGF23 signaling", "setting": "[10]", "value": "does not inhibit"}, {"measurement": "half-life", "setting": "[11]; highest doses (100 to 150 mg/kg) tested", "value": "at least 8 days"}, {"measurement": "half-life", "setting": "[11]; lowest doses (1 to 1.5 mg/kg)", "value": 19, "unit": "h"}, {"measurement": "PK behaviour", "setting": "[11]; rats and cynomolgus monkeys", "value": "dose-dependent, nonlinear PK"}, {"measurement": "tumor growth", "setting": "[12]; FGFR2b overexpressing gastric and breast xenograft models", "value": "inhibits tumor growth"}, {"measurement": "anti-tumor activity", "setting": "[12]; FGFR2b-overexpressing human tumor xenograft models, well-tolerated doses", "value": "dose-related anti-tumor activity with regression and complete responses"}, {"measurement": "drug-drug interaction (DDI) with respect to PK between bemarituzumab and nivolumab", "setting": "[13]; CAPOX background", "value": "No drug-drug interaction"}, {"measurement": "Cycle 1 Cmax (median)", "setting": "[13]; [14]", "value": 360.8, "unit": "µg/mL"}, {"measurement": "Cycle 1 Ctrough (median)", "setting": "[13]; [14]", "value": 111.5, "unit": "µg/mL"}, {"measurement": "Cycle 2 Cmax (median)", "setting": "[13]; [14]", "value": 457.0, "unit": "µg/mL"}, {"measurement": "Cycle 2 Ctrough (median)", "setting": "[13]; [14]", "value": 86.6, "unit": "µg/mL"}, {"measurement": "Cycle 1 Cmax (median)", "setting": "[13]; [15]", "value": 333.8, "unit": "µg/mL"}, {"measurement": "Cycle 1 Ctrough (median)", "setting": "[13]; [15]", "value": 125.9, "unit": "µg/mL"}, {"measurement": "Cycle 2 Cmax (median)", "setting": "[13]; [15]", "value": 655.8, "unit": "µg/mL"}, {"measurement": "Cycle 2 Ctrough (median)", "setting": "[13]; [15]", "value": 71.1, "unit": "µg/mL"}, {"measurement": "Cycle 1 Cmax (median)", "setting": "[13]; [16]", "value": 381.4, "unit": "µg/mL"}, {"measurement": "Cycle 1 Ctrough (median)", "setting": "[13]; [16]", "value": 130.1, "unit": "µg/mL"}, {"measurement": "Cycle 2 Cmax (median)", "setting": "[13]; [16]", "value": 549.8, "unit": "µg/mL"}, {"measurement": "Cycle 2 Ctrough (median)", "setting": "[13]; [16]", "value": 133.0, "unit": "µg/mL"}]}
